Target: cell-surface GalNAcPTase (chicken (endogenous in E9 chick retina cells))

inhibition of N-cadherin-mediated adhesion of E9 retina cells, RP at 20 μg/ml: 60%
Substance: Full-length neurocan fusion protein (RP) (natural protein)

— article PMC2175121
